To fix the notation:
B2: dynactin p150^Glued coiled-coil 1B (CC1B), residues 381–530 (domain or fragment, R. norvegicus, UniProt P28023 381-530, looked up)
chain: SSEKQEHVKLQKLMEKKNQELEVVRQQRERLQEELSQAESTIDELKEQVDAALGAEEMVEMLTDRNLNLEEKVRELRETVGDLEAMNEMNDELQENARETELELREQLDMAGARVREAQKRVEAAQETVADYQQTIKKYRQLTAHLQDVN
notes: also called p150^Glued CC1B; source: E. coli BL21 Star (DE3), purified (Ni-NTA, Ulp1 cleavage, HiTrap Q XL, Superdex 75); not shown: His6, N-terminal, cleaved; SMT3 (S. cerevisiae SUMO), N-terminal, cleaved

For data set [1], the target named is B2. Description: native gel or EMSA; native PAGE; purified proteins incubated at 25°C for five minutes in equimolar or two fold molar excess; 12% gels with a stacking gel at pH 7.4 or 8–25% gradient gels. As to conditions: both partners purified. On the technique in general: In EMSA bound probe runs differently from free probe, usually more slowly.
Data set [2] concerns the molecule itself. Description: AUC; sedimentation equilibrium of the p150Glued fragments alone, 4°C, 1x PBS, 1 mM TCEP; monomer-dimer model (dimer to monomers).
Data set [3] concerns the molecule itself. Put plainly: not stated; unpublished observation.

B1: S. cerevisiae dynein intermediate chain Pac11, residues 1–86, wild type (domain or fragment, UniProt P40960 1-86, looked up)
chain: MERLKQLEEKRRQLKELRERRKQASLFPGSETMGHHPTEVHAKATMVSVSVQTDMEEGSKIQEPQSAYLRRKEVITYDKGIQTDQI
notes: S. cerevisiae dynein intermediate chain Pac11, residues 1-86; Cloned in pGEX 6P-3; also called wt-Pac11^1–86; Pac11 1–86; source: E. coli BL21 Star (DE3), purified (Glutathione Sepharose 4B, precision protease, Superdex 75)
B1: in data set [1], the binding result is listed as “binds”.

For orientation: Kd means the concentration at which binding is half-saturated. Read a high Kd as lower affinity. The stoichiometry N is a count of units in the complex or per binding partner. As for B2, in data set [2], the Kd was < 60 nM and the “stoichiometry N” value amounted to 2.

B3: dynactin p150^Glued coiled-coil 1A (CC1A), residues 204–348 (domain or fragment, R. norvegicus, UniProt P28023 204-348, looked up)
chain: PGAAPPLPSPSKEEEGLRDQVRDLEEKLETLRLKRSEDKAKLKELEKHKIQLEQVQEWKSKMQEQQADLQRRLKEAKEAKEALEAKERYMEEMADTADAIEMATLDKEMAEERAESLQQEVEALKERVDELTTDLEILKAEIEEK
notes: R. norvegicus dynactin p150Glued, residues 204-348; Dimer at 4°C by sedimentation equilibrium; source: E. coli BL21 Star (DE3), purified (Ni-NTA, Ulp1 cleavage, HiTrap Q XL, Superdex 75); not shown: His6, N-terminal, cleaved; SMT3 (S. cerevisiae SUMO), N-terminal, cleaved
Regarding B3, in data set [2], the dissociation constant (Kd) was < 40 nM and the “stoichiometry N” value worked out at 2.

B4: p150^Glued CC2 (residues 928–1049) (domain or fragment, rat (numbering stated as rat, p-0002), UniProt P28023 928-1049, looked up)
chain: AALRAEITDAEGLGLKLEDRETVIKELKKSLKIKGEELSEANVRLSLLEKKLDSAAKDADERIEKVQTRLEETQTLLRKKEKEFEETMDALQADIDQLEAEKTELKQRLNSQSKRTIEGLRG
notes: Unpublished observation of the authors
As to B4, the “stoichiometry N” value in data set [3] came to 2.

Source of the values: paper PMC3618186, “Dynein and Dynactin Leverage Their Bivalent Character to Form a High-Affinity Interaction” (PLoS ONE, 2013).
